Measurements taken from patent US9260500B2, “Peptide and use thereof” (Takeda Pharmaceutical Company Limited, priority 2009, dated 2016).
Starred links: 1 amine or outer side, 2 acyl side, 3 side chain; linkers in the order of their positions; H or OH if unused. Non-standard residues stand in square brackets, D forms with d. Primed or numbered codes have the meaning given here. No end group written: not given here. *: point of attachment. Ser(Me) = methylated serine, COC[C@H](N[*:1])C(=O)[*:2]; Ser(Me)″ = O-methylserine, COC[C@H](N[*:1])C(=O)[*:2]; Lys(Me2) = CN(C)CCCC[C@H](N)C(=O)O; Ala(cPr) = N[C@@H](CC1CC1)C(=O)O; tBuAla = CC(C)(C)C[C@H](N)C(=O)O; 4Pal = N[C@@H](Cc1ccncc1)C(=O)O; dHyp = O=C(O)[C@H]1C[C@H](O)CN1; Cha = N[C@@H](CC1CCCCC1)C(=O)O; Cit = NC(=O)NCCC[C@H](N)C(=O)O; Isonicotinoyl = O=C(c1ccncc1)*; 4Amb = NCc1ccc(C(=O)O)cc1; Isobutyryl = CC(C)C(=O)*; Nle = CCCC[C@H](N)C(=O)O; Abu = CC[C@H](N)C(=O)O; Aib = CC(C)(N)C(=O)O; Bz = O=C(c1ccccc1)*

How the values were obtained:
human Y2 receptor [1] = target: T1, human Y2 receptor (Homo sapiens, UniProt P49146); experiment: Receptor Binding Assay (RBA) for Human Y2, [125I]-PYY displacement on hY2R/CHO membrane fraction; settings: IC50 of test compound/IC50 of PYY(3-36) (PYY(3-36) taken as 1)
T1 construct: expressed in transfected cells; membrane fraction
T1 sequence (P49146 1-381): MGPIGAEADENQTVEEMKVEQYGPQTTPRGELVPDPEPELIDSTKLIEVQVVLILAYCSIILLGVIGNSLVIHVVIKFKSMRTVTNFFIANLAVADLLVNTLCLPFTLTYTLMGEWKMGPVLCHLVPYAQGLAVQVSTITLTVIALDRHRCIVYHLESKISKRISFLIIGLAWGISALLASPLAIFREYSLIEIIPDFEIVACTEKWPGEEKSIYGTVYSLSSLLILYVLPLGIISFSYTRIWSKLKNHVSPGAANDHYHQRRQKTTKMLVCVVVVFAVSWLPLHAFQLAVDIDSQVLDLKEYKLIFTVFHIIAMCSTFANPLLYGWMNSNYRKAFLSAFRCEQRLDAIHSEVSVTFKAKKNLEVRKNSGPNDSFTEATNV
Procedure, shortened: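 hY2R stably expressed in CHO/dhfr− cells; membrane fraction prepared from cells disrupted in 10 mM NaHCO3, 5 mM EDTA buffer with protease inhibitors. Binding read as displacement of [125I]-PYY.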

human Y2 receptor [2] = target: T1, human Y2 receptor; experiment: Human Y2 Receptor G Protein Binding Assay (GBA), [35S]GTPγS; format: biochemical; settings: EC50 of test compound/EC50 of PYY(3-36) (PYY3-36 taken as 1), hY2R/CHO membrane fraction
Procedure, shortened: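 Agonism measured as [35S]GTPγS binding, read by GF/C filtration and scintillation counting after 120 min at room temperature, using human Y2 membranes at 1 μg protein/mL in pH 7.4 Tris/MgCl2/NaCl/GDP buffer. Compound serially diluted 100 μM–1 nM; EC50 normalized to PYY(3-36) (ratio = compound/PYY).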

Row | Substance | RBA IC50 Ratio (human Y2 receptor [1]) | GBA EC50 Ratio (human Y2 receptor [2])
1 | 4-Aminomethylbenzoyl-[Ala26, Ile28, VAl31]-PYY(25-36) ([4Amb]RAYINLVTRQRY-NH2; N-terminus assumed; SMILES CC[C@H](C)[C@H](NC(=O)[C@H](Cc1ccc(O)cc1)NC(=O)[C@H](C)NC(=O)[C@H](CCCNC(=N)N)NC(=O)c1ccc(CN)cc1)C(=O)N[C@@H](CC(N)=O)C(=O)N[C@@H](CC(C)C)C(=O)N[C@H](C(=O)N[C@H](C(=O)N[C@@H](CCCNC(=N)N)C(=O)N[C@@H](CCC(N)=O)C(=O)N[C@@H](CCCNC(=N)N)C(=O)N[C@@H](Cc1ccc(O)cc1)C(N)=O)[C@@H](C)O)C(C)C) [compound No. 39] | 7.2 | 4.0
2 | Ac-[D-Pro24, Cha27,28,36, Lys(Me2)30, Aib31]-PYY(23-36) (Ac-S[dP]RH[Cha][Cha]N[Lys(Me2)][Aib]TRQR[Cha]-NH2; SMILES CC(=O)N[C@@H](CO)C(=O)N1CCC[C@@H]1C(=O)N[C@@H](CCCNC(=N)N)C(=O)N[C@@H](Cc1c[nH]cn1)C(=O)N[C@@H](CC1CCCCC1)C(=O)N[C@@H](CC1CCCCC1)C(=O)N[C@@H](CC(N)=O)C(=O)N[C@@H](CCCCN(C)C)C(=O)NC(C)(C)C(=O)N[C@H](C(=O)N[C@@H](CCCNC(=N)N)C(=O)N[C@@H](CCC(N)=O)C(=O)N[C@@H](CCCNC(=N)N)C(=O)N[C@@H](CC1CCCCC1)C(N)=O)[C@@H](C)O) [compound No. 166] | 0.8 | 0.7
3 | Ac-[Ser(Me)23, D-Pro24, Abu26, Cha27,28,36, Aib31]-PYY(23-36) (Ac-[Ser(Me)][dP]R[Abu][Cha][Cha]NL[Aib]TRQR[Cha]-NH2; SMILES CC[C@H](NC(=O)[C@H](CCCNC(=N)N)NC(=O)[C@H]1CCCN1C(=O)[C@H](COC)NC(C)=O)C(=O)N[C@@H](CC1CCCCC1)C(=O)N[C@@H](CC1CCCCC1)C(=O)N[C@@H](CC(N)=O)C(=O)N[C@@H](CC(C)C)C(=O)NC(C)(C)C(=O)N[C@H](C(=O)N[C@@H](CCCNC(=N)N)C(=O)N[C@@H](CCC(N)=O)C(=O)N[C@@H](CCCNC(=N)N)C(=O)N[C@@H](CC1CCCCC1)C(N)=O)[C@@H](C)O) [compound No. 106] | 5.2 | 3.8
4 | Ac-[Abu23, D-Pro24, Abu26, Cha27,28,36, Aib31]-PYY(23-36) (Ac-[Abu][dP]R[Abu][Cha][Cha]NL[Aib]TRQR[Cha]-NH2; SMILES CC[C@H](NC(=O)[C@H](CCCNC(=N)N)NC(=O)[C@H]1CCCN1C(=O)[C@H](CC)NC(C)=O)C(=O)N[C@@H](CC1CCCCC1)C(=O)N[C@@H](CC1CCCCC1)C(=O)N[C@@H](CC(N)=O)C(=O)N[C@@H](CC(C)C)C(=O)NC(C)(C)C(=O)N[C@H](C(=O)N[C@@H](CCCNC(=N)N)C(=O)N[C@@H](CCC(N)=O)C(=O)N[C@@H](CCCNC(=N)N)C(=O)N[C@@H](CC1CCCCC1)C(N)=O)[C@@H](C)O) [compound No. 105] | 6.9 | 4.0
5 | Isobutanoyl-[Abu26, Cha27,28,36, Ala(cPr)30, Aib31]-PYY(25-36) (Isobutyryl-R[Abu][Cha][Cha]N[Ala(cPr)][Aib]TRQR[Cha]-NH2; SMILES CC[C@H](NC(=O)[C@H](CCCNC(=N)N)NC(=O)C(C)C)C(=O)N[C@@H](CC1CCCCC1)C(=O)N[C@@H](CC1CCCCC1)C(=O)N[C@@H](CC(N)=O)C(=O)N[C@@H](CC1CC1)C(=O)NC(C)(C)C(=O)N[C@H](C(=O)N[C@@H](CCCNC(=N)N)C(=O)N[C@@H](CCC(N)=O)C(=O)N[C@@H](CCCNC(=N)N)C(=O)N[C@@H](CC1CCCCC1)C(N)=O)[C@@H](C)O) [compound No. 80] | 17 | 12

Further lines, results first:

Row | RBA IC50 Ratio (human Y2 receptor [1]) | GBA EC50 Ratio (human Y2 receptor [2]) | Substance
6 | 0.38 | 0.76 | Ac-[D-Hyp24, Cha27,36, Leu(Me)28, Lys30, Aib31]-PYY(23-36) (Ac-S[dHyp]RH[Cha][tBuAla]NK[Aib]TRQR[Cha]-NH2; SMILES CC(=O)N[C@@H](CO)C(=O)N1C[C@@H](O)C[C@@H]1C(=O)N[C@@H](CCCNC(=N)N)C(=O)N[C@@H](Cc1c[nH]cn1)C(=O)N[C@@H](CC1CCCCC1)C(=O)N[C@@H](CC(C)(C)C)C(=O)N[C@@H](CC(N)=O)C(=O)N[C@@H](CCCCN)C(=O)NC(C)(C)C(=O)N[C@H](C(=O)N[C@@H](CCCNC(=N)N)C(=O)N[C@@H](CCC(N)=O)C(=O)N[C@@H](CCCNC(=N)N)C(=O)N[C@@H](CC1CCCCC1)C(N)=O)[C@@H](C)O) [compound No. 203]
7 | 6.6 | 4.2 | Ac-[D-Pro24, Lys(Ac)25, Pya(4)26, Cha27,36, Aib28,31, Lys30]-PYY(23-36) (Ac-S[dP]K(Ac)[4Pal][Cha][Aib]NK[Aib]TRQR[Cha]-NH2; SMILES CC(=O)NCCCC[C@H](NC(=O)[C@H]1CCCN1C(=O)[C@H](CO)NC(C)=O)C(=O)N[C@@H](Cc1ccncc1)C(=O)N[C@@H](CC1CCCCC1)C(=O)NC(C)(C)C(=O)N[C@@H](CC(N)=O)C(=O)N[C@@H](CCCCN)C(=O)NC(C)(C)C(=O)N[C@H](C(=O)N[C@@H](CCCNC(=N)N)C(=O)N[C@@H](CCC(N)=O)C(=O)N[C@@H](CCCNC(=N)N)C(=O)N[C@@H](CC1CCCCC1)C(N)=O)[C@@H](C)O) [compound No. 280]
8 | 2.7 | 3.1 | Ac-[D-Pro24, Pya(4)26, Cha27,36, Aib28,31, Cit30]-PYY(23-36) (Ac-S[dP]R[4Pal][Cha][Aib]N[Cit][Aib]TRQR[Cha]-NH2; SMILES CC(=O)N[C@@H](CO)C(=O)N1CCC[C@@H]1C(=O)N[C@@H](CCCNC(=N)N)C(=O)N[C@@H](Cc1ccncc1)C(=O)N[C@@H](CC1CCCCC1)C(=O)NC(C)(C)C(=O)N[C@@H](CC(N)=O)C(=O)N[C@@H](CCCNC(N)=O)C(=O)NC(C)(C)C(=O)N[C@H](C(=O)N[C@@H](CCCNC(=N)N)C(=O)N[C@@H](CCC(N)=O)C(=O)N[C@@H](CCCNC(=N)N)C(=O)N[C@@H](CC1CCCCC1)C(N)=O)[C@@H](C)O) [compound No. 266]
9 | 8.1 | 5.7 | 4-Pyridinecarbonyl-[Glu23, D-Pro24, Nle25, Pya(4)26, Cha27,36, Aib28,31, Lys30]-PYY(23-36) (Isonicotinoyl-E[dP][Nle][4Pal][Cha][Aib]NK[Aib]TRQR[Cha]-NH2; SMILES CCCC[C@H](NC(=O)[C@H]1CCCN1C(=O)[C@H](CCC(=O)O)NC(=O)c1ccncc1)C(=O)N[C@@H](Cc1ccncc1)C(=O)N[C@@H](CC1CCCCC1)C(=O)NC(C)(C)C(=O)N[C@@H](CC(N)=O)C(=O)N[C@@H](CCCCN)C(=O)NC(C)(C)C(=O)N[C@H](C(=O)N[C@@H](CCCNC(=N)N)C(=O)N[C@@H](CCC(N)=O)C(=O)N[C@@H](CCCNC(=N)N)C(=O)N[C@@H](CC1CCCCC1)C(N)=O)[C@@H](C)O) [compound No. 228]
10 | 26 | 22 | Isobutanoyl-[Abu26, Cha27,36, Pya(4)28, Aib31]-PYY(25-36) (Isobutyryl-R[Abu][Cha][4Pal]NL[Aib]TRQR[Cha]-NH2; SMILES CC[C@H](NC(=O)[C@H](CCCNC(=N)N)NC(=O)C(C)C)C(=O)N[C@@H](CC1CCCCC1)C(=O)N[C@@H](Cc1ccncc1)C(=O)N[C@@H](CC(N)=O)C(=O)N[C@@H](CC(C)C)C(=O)NC(C)(C)C(=O)N[C@H](C(=O)N[C@@H](CCCNC(=N)N)C(=O)N[C@@H](CCC(N)=O)C(=O)N[C@@H](CCCNC(=N)N)C(=O)N[C@@H](CC1CCCCC1)C(N)=O)[C@@H](C)O) [compound No. 83]
11 | 18 | 8.7 | Benzoyl-[Ser(Me)26, Cha27,28,36, Aib31]-PYY(25-36) (Bz-R[Ser(Me)″][Cha][Cha]NL[Aib]TRQR[Cha]-NH2; SMILES COC[C@H](NC(=O)[C@H](CCCNC(=N)N)NC(=O)c1ccccc1)C(=O)N[C@@H](CC1CCCCC1)C(=O)N[C@@H](CC1CCCCC1)C(=O)N[C@@H](CC(N)=O)C(=O)N[C@@H](CC(C)C)C(=O)NC(C)(C)C(=O)N[C@H](C(=O)N[C@@H](CCCNC(=N)N)C(=O)N[C@@H](CCC(N)=O)C(=O)N[C@@H](CCCNC(=N)N)C(=O)N[C@@H](CC1CCCCC1)C(N)=O)[C@@H](C)O) [compound No. 98]
12 | 1.1 | 0.69 | Ac-[Thr23, D-Pro24, Pya(4)26, Cha27,36, Aib28,31, Lys30]-PYY(23-36) (Ac-T[dP]R[4Pal][Cha][Aib]NK[Aib]TRQR[Cha]-NH2; SMILES CC(=O)N[C@H](C(=O)N1CCC[C@@H]1C(=O)N[C@@H](CCCNC(=N)N)C(=O)N[C@@H](Cc1ccncc1)C(=O)N[C@@H](CC1CCCCC1)C(=O)NC(C)(C)C(=O)N[C@@H](CC(N)=O)C(=O)N[C@@H](CCCCN)C(=O)NC(C)(C)C(=O)N[C@H](C(=O)N[C@@H](CCCNC(=N)N)C(=O)N[C@@H](CCC(N)=O)C(=O)N[C@@H](CCCNC(=N)N)C(=O)N[C@@H](CC1CCCCC1)C(N)=O)[C@@H](C)O)[C@@H](C)O) [compound No. 211]
